Measured values reported in article PMC6689086.
Blank lines part the entries; values can stand above or below the molecule they belong to.

What was measured:
[1] = molecular target: Hsc82 C61-ATTO 550 (S. cerevisiae) (UniProt P15108)
[2] = molecular target: Hsp82 C61-ATTO 550 (S. cerevisiae) (UniProt P02829)
[3] = molecular target: Hsc82 C61-ATTO 550 (S. cerevisiae) (UniProt P15108); experiment: FRET or BRET; FRET chase: tenfold excess of unlabeled Hsp90 added to the FRET complex preequilibrated 30 min with 2 mM ATP, 30 °C; apparent
[4] = molecular target: Hsc82 C61-ATTO 550 (S. cerevisiae) (UniProt P15108); experiment: FRET or BRET; FRET chase: tenfold excess of unlabeled Hsp90 added to the preformed FRET complex (400 nM), without nucleotide, 30 °C; apparent
[5] = molecular target: Hsc82 C61-ATTO 550 (S. cerevisiae) (UniProt P15108); experiment: FRET or BRET; subunit exchange after mixing of NTD- and MD-labeled dimers, no nucleotide; standard buffer (40 mM HEPES pH 7.5, 150 mM KCl, 5 mM MgCl2), 30 °C
[6] = molecular target: Hsp82 protomer of the NM-FRET heterodimer (S. cerevisiae) (UniProt P02829); experiment: as above
[7] = molecular target: Hsp82 C61-ATTO 550 (S. cerevisiae) (UniProt P02829); experiment: FRET or BRET; FRET chase: tenfold excess of unlabeled Hsp90 added to the FRET complex preequilibrated 30 min with 2 mM ATP, 30 °C; apparent
[8] = molecular target: Hsp82 C61-ATTO 550 (S. cerevisiae) (UniProt P02829); experiment: FRET or BRET; subunit exchange after mixing of NTD- and MD-labeled dimers, no nucleotide; standard buffer (40 mM HEPES pH 7.5, 150 mM KCl, 5 mM MgCl2), 30 °C

reopening of closed state rate, with ATP (kapp as headed; apparent half-life by the legend) [7]: 0.7 min⁻¹
subunit exchange rate (kse) [8]: 0.034 s⁻¹
Molecule: Hsp82 C385-ATTO 488 (from UniProt P02829 1-709) (natural protein)

ATPγS-induced closing rate kapp of the Hsc82 NM-FRET dimer (C61-ATTO 550 with C381-ATTO 488 protomers) with 4 µM Sba1, percentage of kapp without co-chaperone [1]: 78%
Molecule: p23/Sba1 (from UniProt P28707 1-216) (natural protein)

ATPγS-induced closing rate kapp of the Hsc82 NM-FRET dimer (C61-ATTO 550 with C381-ATTO 488 protomers) with 4 µM Aha1, percentage of kapp without co-chaperone [1]: 616%
ATPγS-induced closing rate kapp of the Hsp82 NM-FRET dimer (C61-ATTO 550 with C385-ATTO 488 protomers) with 4 µM Aha1, percentage of kapp without co-chaperone [2]: 868%
B2: Aha1 (natural protein)
chain: MVVNNPNNWHWVDKNCIGWAKEYFKQKLVGVEAGSVKDKKYAKIKSVSSIEGDCEVNQRKGKVISLFDLKITVLIEGHVDSKDGSALPFEGSINVPEVAFDSEASSYQFDISIFKETSELSEAKPLIRSELLPKLRQIFQQFGKDLLATHGNDIQVPESQVKSNYTRGNQKSSFTEIKDSASKPKKNALPSSTSTSAPVSSTNKVPQNGSGNSTSIYLEPTFNVPSSELYETFLDKQRILAWTRSAQFFNSGPKLETKEKFELFGGNVISELVSCEKDKKLVFHWKLKDWSAPFNSTIEMTFHESQEFHETKLQVKWTGIPVGEEDRVRANFEEYYVRSIKLTFGFGAVL

Further lines, the molecule ahead of its results:

Molecule: Cpr6 (from UniProt P53691 1-371) (natural protein)
ATPγS-induced closing rate kapp of the Hsc82 NM-FRET dimer (C61-ATTO 550 with C381-ATTO 488 protomers) with 4 µM Cpr6, percentage of kapp without co-chaperone [1]: 108%
ATPγS-induced closing rate kapp of the Hsp82 NM-FRET dimer (C61-ATTO 550 with C385-ATTO 488 protomers) with 4 µM Cpr6, percentage of kapp without co-chaperone [2]: 239%

Molecule: Hsc82 C381-ATTO 488 (from UniProt P15108 1-705) (natural protein)
reopening of closed state rate, with ATP (kapp as headed; apparent half-life by the legend) [3]: 0.7 min⁻¹
reopening of closed state rate, without nucleotide (t½) [4]: 32 s
subunit exchange rate (kse) [5]: 0.037 s⁻¹

Molecule: Hsc82 protomer of the NM-FRET heterodimer (from UniProt P15108 1-705) (natural protein)
subunit exchange rate (kse) [6]: 0.03 s⁻¹

B1: Sti1 (natural protein)
chain: MSLTADEYKQQGNAAFTAKDYDKAIELFTKAIEVSETPNHVLYSNRSACYTSLKKFSDALNDANECVKINPSWSKGYNRLGAAHLGLGDLDEAESNYKKALELDASNKAAKEGLDQVHRTQQARQAQPDLGLTQLFADPNLIENLKKNPKTSEMMKDPQLVAKLIGYKQNPQAIGQDLFTDPRLMTIMATLMGVDLNMDDINQSNSMPKEPETSKSTEQKKDAEPQSDSTTSKENSSKAPQKEESKESEPMEVDEDDSKIEADKEKAEGNKFYKARQFDEAIEHYNKAWELHKDITYLNNRAAAEYEKGEYETAISTLNDAVEQGREMRADYKVISKSFARIGNAYHKLGDLKKTIEYYQKSLTEHRTADILTKLRNAEKELKKAEAEAYVNPEKAEEARLEGKEYFTKSDWPNAVKAYTEMIKRAPEDARGYSNRAAALAKLMSFPEAIADCNKAIEKDPNFVRAYIRKATAQIAVKEYASALETLDAARTKDAEVNNGSSAREIDQLYYKASQQRFQPGTSNETPEETYQRAMKDPEVAAIMQDPVMQSILQQAQQNPAALQEHMKNPEVFKKIQTLIAAGIIRTGR
ATPγS-induced closing rate kapp of the Hsc82 NM-FRET dimer (C61-ATTO 550 with C381-ATTO 488 protomers) with 4 µM Sti1, percentage of kapp without co-chaperone [1]: 19%
ATPγS-induced closing rate kapp of the Hsp82 NM-FRET dimer (C61-ATTO 550 with C385-ATTO 488 protomers) with 4 µM Sti1, percentage of kapp without co-chaperone [2]: 40%
